Data as given in US20240325562A1, “INTERNALIZING BINDING MOLECULES” (LinXis B.V., priority 2020, published 2024).

What was measured:
[1] = tested on: primary activated rat hepatic stellate cells (HSCs); assay: Binding to primary activated rat hepatic stellate cells; format: cell-based; settings: Alexa Fluor 488 conjugate; HSCs from BDL rat, 6 days in culture
Source text: The cross-reactivity of F11-E8-ABD was further evaluated in binding experiments to primary activated rat hepatic stellate cells (HSCs). For this, the construct was conjugated to Alexa Fluor 488 according to the methods described in example 10.2. Activated HSCs were obtained from a perfused liver of a cirrhotic bile duct ligated (BDL) rat through density gradient centrifugation. Cells were kept in culture for 6 days to allow complete activation. […] Simultaneously, binding of the VHH construct to the activated cells was evident, further confirming species cross-reactivity of the construct.

[2] = In vivo pharmacokinetics in rats, serum ELISA on hIGF2R-ECD; parameters: species or system Sprague-Dawley rats
Description: (§1) The in vivo pharmacokinetic properties of 13F11-13E8-ABD (F11E8-ABD; with ABD) and 13F11-13E8 (F11E8; without ABD) were compared in healthy Sprague-Dawley rats. In brief, rats were dosed intravenously with approximately 3 mg/kg body weight and blood samples were taken at different time points and the concentration of the VHH constructs were determined using an ELISA on immobilized hIGF2R-ECD. […] To further confirm the functionality of the ABD, biodistribution of F11E8-ABD and F11E8 were assessed by means of Positron Emission Tomography (PET). In brief, the constructs were radio-labelled with the positron emitter ^89Zr-desferral according to Verel et al (J Nucl Med. 2003; 44:1271-1281), and administered intravenously to rats after which biodistribution was assessed on subsequent time points by whole-body PET.

[3] = Biodistribution by whole-body PET of 89Zr-labelled constructs; format: in vivo; settings: 89Zr-desferral labelled, i.v., rats
Description: as §1

[4] = target: T1, rPDGFRB (SCC-rPDGFRB cells) (Rattus norvegicus, UniProt Q05030); assay: Binding to cells transgenically expressing rat PDGFRB
T1 construct: SCC VII cells transgenically expressing full-length rat PDGFRB (SCC-rPDGFRB); expressed in transfected cells; host or cells: murine SCC VII cells
T1 sequence (Q05030 32-1097): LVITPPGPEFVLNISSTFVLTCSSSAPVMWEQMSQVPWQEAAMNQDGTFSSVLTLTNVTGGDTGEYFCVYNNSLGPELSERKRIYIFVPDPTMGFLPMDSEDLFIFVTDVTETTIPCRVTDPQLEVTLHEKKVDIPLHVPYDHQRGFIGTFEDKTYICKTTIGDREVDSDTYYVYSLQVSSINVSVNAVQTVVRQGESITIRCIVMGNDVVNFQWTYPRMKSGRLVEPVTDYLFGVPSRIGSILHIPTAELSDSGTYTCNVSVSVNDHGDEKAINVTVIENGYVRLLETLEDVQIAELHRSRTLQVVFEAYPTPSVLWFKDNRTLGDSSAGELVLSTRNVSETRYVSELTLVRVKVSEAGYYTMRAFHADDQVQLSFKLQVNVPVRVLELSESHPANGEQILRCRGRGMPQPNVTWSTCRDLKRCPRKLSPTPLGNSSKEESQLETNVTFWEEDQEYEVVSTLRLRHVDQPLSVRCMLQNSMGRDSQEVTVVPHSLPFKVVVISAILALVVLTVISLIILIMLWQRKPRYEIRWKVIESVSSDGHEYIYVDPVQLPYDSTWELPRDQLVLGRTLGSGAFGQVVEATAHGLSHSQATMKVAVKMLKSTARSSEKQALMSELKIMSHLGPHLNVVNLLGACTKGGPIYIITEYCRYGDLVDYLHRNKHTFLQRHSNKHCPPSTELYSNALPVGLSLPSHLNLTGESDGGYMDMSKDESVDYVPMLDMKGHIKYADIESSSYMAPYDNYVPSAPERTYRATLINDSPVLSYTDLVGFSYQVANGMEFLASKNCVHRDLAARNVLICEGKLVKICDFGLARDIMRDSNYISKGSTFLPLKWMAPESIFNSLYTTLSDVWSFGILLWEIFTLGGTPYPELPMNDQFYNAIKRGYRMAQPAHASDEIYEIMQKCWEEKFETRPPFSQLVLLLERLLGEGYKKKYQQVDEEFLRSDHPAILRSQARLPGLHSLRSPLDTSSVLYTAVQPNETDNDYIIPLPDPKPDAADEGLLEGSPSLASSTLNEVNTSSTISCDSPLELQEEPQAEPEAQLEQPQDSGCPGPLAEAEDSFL
Description: (§2) High affine binders to hPDGFRB-ECD or rPDGFRB-ECD were subsequently assessed for binding to SCC VII cells transfected with hPDGFRB and rPDGFRB, respectively.
(§3) Based on their high affinity and binding to non-overlapping hPDGRB epitopes, various biparatopic constructs were prepared based on VHHs SP02P, SP12P SP14P, SP26P and SP28P. The constructs were produced as described in example 7.1. and subjected to binding assay.
(§4) As Shown in FIG. 15C), the binding affinity of this construct for both hPDGFRB and rPDGFRB are below 5 nM. […] These observations make SP02P (or similar VHH) and SP26P (or similar VHH) particularly promising for use in the present invention.

hPDGFRB-ECD = hPDGFRB-ECD (Homo sapiens, UniProt P09619); assay: Binding assay on hPDGFRB-ECD; settings: biparatopic constructs, FIG. 15A
Sequence of hPDGFRB-ECD (P09619 33-532 limits assumed): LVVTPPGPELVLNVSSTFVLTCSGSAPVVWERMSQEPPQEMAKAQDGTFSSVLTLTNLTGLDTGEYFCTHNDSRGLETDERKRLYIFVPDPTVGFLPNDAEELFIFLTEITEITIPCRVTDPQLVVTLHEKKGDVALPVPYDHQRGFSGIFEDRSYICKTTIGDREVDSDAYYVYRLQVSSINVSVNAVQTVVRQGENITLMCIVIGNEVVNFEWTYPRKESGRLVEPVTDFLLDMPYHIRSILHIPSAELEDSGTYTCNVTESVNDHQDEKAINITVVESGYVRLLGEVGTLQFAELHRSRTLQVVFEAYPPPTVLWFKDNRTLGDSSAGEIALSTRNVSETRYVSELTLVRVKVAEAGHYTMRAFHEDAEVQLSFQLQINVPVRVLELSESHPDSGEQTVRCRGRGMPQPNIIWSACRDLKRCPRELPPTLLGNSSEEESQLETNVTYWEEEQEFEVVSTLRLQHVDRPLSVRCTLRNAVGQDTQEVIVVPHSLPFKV
Description: The 15 unique hIGF2R-binding VHH (Example 2.1, FIG. 2) were produced and purified as described in examples 3 and 4. The apparent affinities were determined through binding assay on immobilized hIGF2R-ECD. Briefly, three-fold serial dilution series, starting from 1 μM, of each VHH were plated onto hIGF2R-ECD coated plates. VHH were allowed to bind for two hours after which plates were washed. Then, bound VHH was detected using a VHH-specific IgG antibody, followed by an IRD800CW-conjugated IgG-specific antibody. Plates were read out by fluorimetry.
The 18 unique hPDGFRB binders from libraries 1 and 2, and the 11 unique rPDGFRB binders from libraries 3 and 4 (Example 2.2, FIGS. 5 and 6) were produced and purified as described in examples 3 and 4. Then, the apparent affinities were determined with binding assays on hPDGFRB-ECD and rPDGFRB-ECD, respectively, the setup described in example 5.1. Results are summarized in FIGS. 5 and 6 for the hPDGFRB and rPDGFRB VHHs, respectively.
as §3
As Shown in FIG. 15C), the binding affinity of this construct for both hPDGFRB and rPDGFRB are below 5 nM. […]

[5] = target: T2, hPDGFRB (SCC-hPDGFRB cells) (Homo sapiens, UniProt P09619); assay: Binding to cells transgenically expressing human PDGFRB
T2 construct: SCC VII cells transgenically expressing full-length human PDGFRB (SCC-hPDGFRB); expressed in transfected cells; host or cells: murine SCC VII cells
T2 sequence (P09619 33-1106): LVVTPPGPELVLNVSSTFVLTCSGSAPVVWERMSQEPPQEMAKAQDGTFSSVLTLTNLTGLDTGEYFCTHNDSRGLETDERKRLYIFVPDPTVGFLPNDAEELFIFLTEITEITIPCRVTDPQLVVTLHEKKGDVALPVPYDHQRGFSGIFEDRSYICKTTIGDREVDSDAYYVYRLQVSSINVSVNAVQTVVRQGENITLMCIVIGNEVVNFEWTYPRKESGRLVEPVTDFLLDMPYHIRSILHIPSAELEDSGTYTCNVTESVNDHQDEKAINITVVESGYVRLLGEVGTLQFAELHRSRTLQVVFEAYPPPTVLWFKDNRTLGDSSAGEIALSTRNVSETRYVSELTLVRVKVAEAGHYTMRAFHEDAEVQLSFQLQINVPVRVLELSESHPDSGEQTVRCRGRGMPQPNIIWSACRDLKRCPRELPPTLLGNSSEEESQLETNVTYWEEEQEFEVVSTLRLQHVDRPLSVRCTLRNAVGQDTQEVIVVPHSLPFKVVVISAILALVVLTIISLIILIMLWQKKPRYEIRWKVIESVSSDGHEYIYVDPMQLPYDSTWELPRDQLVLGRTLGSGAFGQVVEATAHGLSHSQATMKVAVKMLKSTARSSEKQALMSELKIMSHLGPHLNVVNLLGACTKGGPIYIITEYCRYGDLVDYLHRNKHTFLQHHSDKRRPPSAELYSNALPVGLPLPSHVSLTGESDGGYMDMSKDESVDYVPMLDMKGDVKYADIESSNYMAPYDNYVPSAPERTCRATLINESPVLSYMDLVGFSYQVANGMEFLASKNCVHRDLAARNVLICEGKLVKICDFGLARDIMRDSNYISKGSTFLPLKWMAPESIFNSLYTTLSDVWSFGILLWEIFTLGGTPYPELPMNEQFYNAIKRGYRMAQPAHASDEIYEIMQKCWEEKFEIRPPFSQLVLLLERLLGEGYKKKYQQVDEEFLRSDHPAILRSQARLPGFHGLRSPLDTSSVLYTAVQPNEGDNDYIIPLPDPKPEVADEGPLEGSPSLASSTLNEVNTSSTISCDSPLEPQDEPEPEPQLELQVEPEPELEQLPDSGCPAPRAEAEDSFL
Description: as §2, §3, §4

[6] = tested on: SCC cells expressing mIGF2R; assay: Kinetic internalization assay on SCC cells expressing mIGF2R; format: cell-based, murine; settings: IRDye800 conjugates, FIG. 17C left panel
Description: (§5) The rate of internalization (endocytic rate constant, ke) of biparatopic constructs 13F11-13E8 and 13E8-13F11 was determined with a kinetic internalization assay on SCC-hIGF2R and SCC-rIGF2R cells. Briefly, 10 nM of IRD800CW conjugated 13F11-13E8 or 13E8-13F11 (conjugation method as described in example 10.2) was added to hIGF2R expressing SCC cells or rIGF2R expressing SCC cells and incubated at 37° C. for different time points up to 12 minutes. Internalization was then purposely halted by putting the cells on ice. Subsequently, cells were washed with cold PBS and the non-internalized VHH construct (bound fraction) was separated from the internalized construct (internalized fraction) using an acid-wash, as described above, after which the fluorescence of both fractions were measured. Both constructs internalize with similar endocytic rate constants in SCC-hIGF2R cells (ke around 1.5 min-1) and in SCC-rIGF2R cells (ke around 0.7 min-1) (FIGS. 17A and B, respectively).
(§6) Internalization of 13F11-13E8 and the corresponding monomeric VHHs 13F11 and 13E8 was assessed in a similar assay (FIG. 17A-C).

[7] = tested on: LX2 cells (an activated hepatic stellate cell line); assay: Live imaging of internalization with pHrodo-red conjugates in LX2 cells; format: cell-based, human; settings: 50 nM pHrodo-red conjugate
Source text: Internalization of monovalent 13F11 and biparatopics 13F11-13E8 and 13E8-13F11 was finally assessed in LX2 cells (an activated hepatic stellate cell line). For live imaging of internalization, the pH dependent Phrodo probe was used (ThermoFisher Scientific). This pH dependent probe becomes more fluorescent at acidic pH. Endosomes and lysosomes have a pH maintained at 6.5 and 4.5, respectively, compared to cytoplasmic pH of 7.0, and thus internalization of a VHH-pHrodo construct can be visualized when it internalizes via the endosomal pathway. LX-2 cells were incubated at 37° C. for 2 hours with 50 nM of pHrodo-red conjugated 13F11, 13F11-13E8 and 13E8-13F11 (conjugation method as described in example 10.2). Images were taken at 5 min. intervals using a wide-field PEXScope microscope (Nikon) with a mCherry filter and 40× oil objective.

[8] = tested on: NIH 3T3 2.2 cells that were transiently transfected with hIGF2R; assay: Internalization by fluorescence microscopy after acid wash, hIGF2R-transfected NIH 3T3 2.2 cells; format: cell-based, human; settings: 25 nM Alexa fluor 647 conjugate
Description: (§7) First, Alexa fluor 647-conjugates of the VHH 13F11 and the biparatopic VHH construct […] were added to A549 cells that endogenously express hIGF2R (FIG. 16A), NIH 3T3 2.2 cells that were transiently transfected with hIGF2R (FIG. 16B), or mock transfected NIH 3T3 2.2 cells (as a negative control). For this, the cells were incubated with 25 nM of the VHH or the VHH construct. Before fluorescent microscopy readout, to ensure that only signal of internalized VHH or mouse anti-IGF2R was present, an acid wash (0.2M glycine-HCl, 150 mM NaCl, pH 2.3) was used to remove VHH or mouse anti-IGF2R bound to the target receptors on the cell surface. The efficiency of the acid wash procedure was verified by incubating the hIGF2R transfected NIH 3T3 2.2 cells with 13F11-13E8-A647 on ice and subsequently treating these cells with an acid wash while remaining on ice to prevent internalization (FIG. 16D). […] Summarizing, biparatopic 13F11-13E8 clearly internalizes in cells expressing hIGF2R on the cell surface.

[9] = tested on: A549 cells that endogenously express hIGF2R; assay: Internalization by fluorescence microscopy after acid wash, A549 cells; format: cell-based, human; settings: 25 nM Alexa fluor 647 conjugate
Description: as §7

[10] = tested on: mock transfected NIH 3T3 2.2 cells; assay: Internalization by fluorescence microscopy after acid wash, mock transfected cells; format: cell-based; settings: 25 nM Alexa fluor 647 conjugate, negative control cells
Description: as §7

SCC-rIGF2R cells = assay: Kinetic internalization assay on SCC-rIGF2R cells; format: cell-based, rat
Description: as §5, §6

SCC-hIGF2R cells = assay: Kinetic internalization assay on SCC-hIGF2R cells; format: cell-based, human
Description: as §5, §6

[11] = 10 nM IRD800CW conjugate, 37° C., up to 12 minutes

B1: 13F11-13E8-ABD: 13F11-13E8 re-engineered to include an albumin binding domain (ABD) as half-life extender (protein)
chain: EVQLVESGGRLVQPGDSLRLSCAASGRTFSDNAMGWFRQAPGKERRFVAGISWAGGSTYYSDSVKGRFTISRDNAKNTVYLQMNSLKPEDTAVYYCAAGLRAWVQRMPKDYNYWGQGTQVTVSSGGGGSGGGGSGGGGSEVQLVESGGGLVQAGGSLRLSCAASRSISPMGWYRQAPGKQRELVAIMPSSGPPIYADSVQGRFTISRDNAKNTVYLQMNSLKPEDTAVYYCNVGGGYWGQGTQVTVSS
modifications: left off: large carriers; small tags and cut ends
[1]
  binding to activated HSCs: evident
[2]; one hour after dosing, approximately 20 nmoles infused, estimated serum volume 10 mL
  infused dose still in circulation: approximately 50%
[2]; rats, i.v., approximately 3 mg/kg, read-out: peak serum level (Cmax)
  Cmax: > 1000 nM
[3]
  biodistribution (PET): accumulate in the liver

B2: SP26P-SP28P: biparatopic construct based on VHH raised against rPDGFRB (protein)
chain: EVQLVESGGGLVQAGGSLRLSCAASGSIVSFNGINWYRQAPGKQREWVGGITQGGNTMYADSVRGRFTISRDNTKNTMYLQMNSLKPEDTAVYYCRRPPVASWGQGTQVTVSSGGGGSGGGGSGGGGSEVQLVESGGGLVQAGGSLRLSCAASGRSFSSSVMGWFRQTPGKEREFVAATRWTAASTHYADSVKGRFTISRDHAENAVFLQMNSLKPEDTAVYYCAAGNYLDTAQYRYNYWGQGTQVTVSS
modifications: left off: small tags and cut ends
notes: biparatopic construct based on VHH raised against rPDGFRB
[4]
  affinity for rPDGFRB on cells: high affinity
hPDGFRB-ECD
  affinity for hPDGFRB: lowest affinity
[5]
  affinity for hPDGFRB on cells: low affinity

B3: 13F11-13E8: biparatopic IGF2R VHH construct, 13F11 and 13E8 fused with (Gly-Gly-Gly-Gly-Ser)3 linker, C-terminal cysteine (protein)
chain: B1 chain
modifications: left off: small tags and cut ends
notes: biparatopic IGF2R VHH construct, 13F11 and 13E8 fused with (Gly-Gly-Gly-Gly-Ser)3 linker, C-terminal cysteine
[6]
  internalization compared to the monomeric VHHs: superior internalization
[7]
  intracellular localisation of internalized construct: accumulate into perinuclear compartments (endosomes/lysosomes)
[7]; 37° C., compared to monovalent 13F11 / between biparatopics
  increase in intracellular fluorescence (internalization): higher rate of internalization
[8]
  internalization: superior internalization
[9]
  internalization: clearly internalized
[2]; rats, i.v., approximately 3 mg/kg, ELISA LOD approximately 20 nM
  clearance from circulation / detectability in serum: could not be detected anymore within two hours after injection
[10]
  internalization: no internalization was observed
SCC-rIGF2R cells; [11]
  endocytic rate constant, ke: around 0.7 min-1
SCC-rIGF2R cells; IRDye800 conjugates, FIG. 17C middle panel
  internalization compared to the monomeric VHHs: superior internalization
SCC-hIGF2R cells; [11]
  endocytic rate constant, ke: around 1.5 min-1
SCC-hIGF2R cells; IRDye800 conjugates, FIG. 17C right panel
  internalization compared to the monomeric VHHs: superior internalization
[3]
  biodistribution (PET): swiftly accumulated in the kidneys
